We go through one substance from patent US20080249043.

The target in data set [1] is His-tagged PLS3 (wild-type phospholipid scramblase 3) (UniProt Q9NRY6).
Data set [2] addresses His-tagged PLS3(T21A) (UniProt Q9NRY6).
Data set [3] concerns the target first 50-aa fragment of PLS3, His-tagged (UniProt Q9NRY6).

Sequence of His-tagged PLS3(T21A) (Q9NRY6 other isoform, or with tags, fused parts or gaps T21A): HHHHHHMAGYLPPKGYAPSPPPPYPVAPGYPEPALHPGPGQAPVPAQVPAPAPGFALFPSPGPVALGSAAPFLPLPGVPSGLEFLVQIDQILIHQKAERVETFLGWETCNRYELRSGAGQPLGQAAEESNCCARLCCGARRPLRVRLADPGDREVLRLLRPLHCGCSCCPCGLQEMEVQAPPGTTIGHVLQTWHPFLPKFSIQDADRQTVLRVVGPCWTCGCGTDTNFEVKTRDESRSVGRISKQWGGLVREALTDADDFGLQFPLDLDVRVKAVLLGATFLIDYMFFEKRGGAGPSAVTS

Turning to “Recombinant human PKC-δ enzyme (Calbiochem)”, the “in vitro phosphorylation with [γ-32P]ATP, autoradiography” value in data set [1] was “Phosphorylation was seen in both full-length PLS3 and its N-terminal fragment of PLS3”; in data set [2], “mutation at Thr21 nearly eliminated PLS3 phosphorylation by PKC-δ”; in data set [3], “Phosphorylation was seen in both full-length PLS3 and its N-terminal fragment of PLS3”.
